Assay [1] concerns the target T1, biotinylated full-length peptide, residues 59–88 of gB (Human cytomegalovirus AD169, UniProt P06473).
T1 construct: also called full-length peptide (white column); source: synthetic peptide, bought: JPT Peptide Technologies
T1 chain: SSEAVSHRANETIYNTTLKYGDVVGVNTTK
The experiment in a line: ELISA. The following applies: both partners purified.

Assay [2] has as its target T2, gB 15-mer library peptide, residues 69-83 (Human cytomegalovirus, strain AD169).
T2 construct: source: synthetic peptide, bought: JPT Peptide Technologies
T2 chain: ETIYNTTLKYGDVVG
Nature of the assay: ELISA. The following applies: both partners purified.

Assay [3] addresses T3, gB-p17 (Human cytomegalovirus, strain AD169).
T3 chain: HRANETIYNTTLKYG
The experiment in a line: ELISA. Conditions: both partners purified.

The target of assay [4] is T4, gB P_(064-083) (Human cytomegalovirus, strain AD169).
T4 construct: source: synthetic peptide
T4 chain: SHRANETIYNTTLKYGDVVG
The experiment in a line: ELISA. Conditions: both partners purified.

Assay [5] has as its target gB on HCMV whole virion (Human cytomegalovirus, virion strain …, UniProt P06473). The experiment in a line: ELISA; inactivated virion (2 μg/mL) coated; 2-fold serially diluted IgG, Fab or (Fab)2, 90 min RT; HRP goat anti-human (Fab)2. The following applies: one partner purified.
In assay [6] the target is T3, gB-p17. Nature of the assay: crystal structure. The following applies: both partners purified.

gB on HCMV whole virion, sequence (P06473 32-906): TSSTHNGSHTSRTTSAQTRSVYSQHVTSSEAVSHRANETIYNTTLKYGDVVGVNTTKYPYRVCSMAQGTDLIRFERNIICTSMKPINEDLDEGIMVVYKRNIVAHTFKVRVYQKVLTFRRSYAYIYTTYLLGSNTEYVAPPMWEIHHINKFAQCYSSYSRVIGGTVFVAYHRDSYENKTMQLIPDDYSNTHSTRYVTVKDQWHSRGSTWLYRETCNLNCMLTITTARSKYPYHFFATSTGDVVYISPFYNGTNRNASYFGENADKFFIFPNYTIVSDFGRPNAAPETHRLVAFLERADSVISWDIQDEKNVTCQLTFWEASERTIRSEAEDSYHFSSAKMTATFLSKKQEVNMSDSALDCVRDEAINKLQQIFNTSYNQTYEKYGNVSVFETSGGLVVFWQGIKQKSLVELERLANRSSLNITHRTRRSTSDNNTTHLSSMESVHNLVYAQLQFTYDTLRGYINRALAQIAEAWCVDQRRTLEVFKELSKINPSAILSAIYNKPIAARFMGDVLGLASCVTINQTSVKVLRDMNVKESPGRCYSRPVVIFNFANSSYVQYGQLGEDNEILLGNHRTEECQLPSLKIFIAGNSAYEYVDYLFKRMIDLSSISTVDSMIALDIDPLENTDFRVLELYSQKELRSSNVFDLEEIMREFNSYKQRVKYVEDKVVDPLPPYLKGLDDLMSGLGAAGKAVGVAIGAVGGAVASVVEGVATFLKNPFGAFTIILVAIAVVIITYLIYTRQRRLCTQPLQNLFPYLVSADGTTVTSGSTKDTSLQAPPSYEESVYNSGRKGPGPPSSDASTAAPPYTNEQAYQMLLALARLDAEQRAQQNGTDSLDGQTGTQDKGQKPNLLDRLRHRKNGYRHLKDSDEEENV

B1: 3–25 IgG (antibody, V domains shown)
VH: QVQLVESGGGVVQPGRSLRLSCAASGFTFSNHGLHWVRQPPGKGLEWVAVVSKDGTNEHYADSVRGRFTISRDNSKNTLYLLMKSLRLEDTAVYYCAREGYCGDDRCYSGQPDYWGQGILVTVSS
VL: EIVLTQFPATLSLSPGERATLSCRASQSVGRYLAWYQQKPGQAPRLLIYDSSNRATGVPARFSGSGSGTDFTLSISSLEPEDFAVYFCQQRSHWPPLTFGGGTKVEIK
Take B1: the binding result in assay [1], in assay [2], in assay [3] and in assay [4] was “binds” each time. Moreover, the midpoint of the response in assay [5], the EC50, lay at 18.9 nM.

B2: 3–25 Fab (Fab, V domains shown)
VH: B1 VH
VL: B1 VL
As to B2, the binding result in assay [6] was “binds”. In addition, the response in assay [5] was half-maximal at 66.9 nM (EC50).

Source of the values: paper PMC7425986 (PLoS Pathogens, 2020).
